Assay results: US20160136272A1, “METHODS FOR RESTORING CORTICOSTEROID SENSITIVITY” (priority 2013, published 2016)

B1: 31C3: anti-human TLR3 mAb, cell deposited as 31C3.1, CNCM I-4186; VH/VL SEQ ID NO 75/76 (antibody, listed as Mus musculus, V domains shown)
VH: MGWSWIFLFLLSGTAGVLSEVQLQQSGPELVKPGASVKISCKPSGYSFTAYYMHWVKQSHVKSLEWIGRINPYNGATSYNRNFKDKASLTVDKSSSTAYMELHSLTSEDSAVYYCARSGGNTYFDYWGQGTTLTVS
VL: MSVPTQVLGLLLLWLTGARCDIQMTQSPASLSASVGETVTITCRASENIYSSLAWYQQKQGKSPQLLVYNAKTLAEGVPSRFSGSGSGTQFSSLKINSLQPEDFGTYYCQHHYGTPPTFGGGTKLEIK
B2: 34A3: anti-human TLR3 mAb; VH/VL SEQ ID NO 77/78 (antibody, listed as Mus musculus, V domains shown)
VH: MEWRWIFLFLLSGTTGVHSEIQLQQSGPELVKPGASVKVSCKASGYVFTTYSIYWVKQSHGKSLEWIGYIDPYNGDTSYNQKFKGKATLTVDKSSSTAYMHLNSLTSEDSTVYYCAREGNYYGYFDYWGQGTTLTVS
VL: MDFQVQIFSFLLMSASVIMSRGQIVLTQSPALMSASPGEKVTMTCSASSSVSYMFWYQQKPRSSPKPWIYLTSNLASGVPARFSGSGSGTSYSLTISSMEAEDAATYYCQQWTGNPPTFGGGTKLEIK
B3: 37B7: anti-human TLR3 Ab used in Example 11; VH/VL SEQ ID NO 71/72 (antibody, listed as Rattus norvegicus, V domains shown)
VH: QVQLQQSGTELVKPGSSVKISCKASGYTFTSNYMHWIRQLPGNGLEWIGWIFPGDGDTNYNQKFNGKATLTADKSSSTAYMQLSSLTSEDYAVYFCARSDGDWYFDFWGPGTMVTVSS
VL: DIQMTQSPGSLSASLGETVTIQCQASEDIYSGLAWYQQKPRKSPQLLISAASRLQDGVPSRFSGSGSGTQYSLKISSMQTEDEGVYFCQQGVKYPNTFGPGTKLELK

Key:
PBMC = assay: IP-10 production by donor PBMC in response to dsRNA and drug combinations (ELISA); type: cell-based, human; details: for IP-10 production in response to polyIC, antibody combined with methotrexate, dexamethasone or Humira / IP-10 production in response to polyAU, antibody combined with methotrexate, dexamethasone or Humira: antibody 50 μg/ml plus dose range of drug; for IP-10 production in response to polyIC, antibody combined with methotrexate, dexamethasone or Humira / IP-10 production in response to polyIC: 30 μg/ml poly(I:C); for IP-10 production in response to polyIC, antibody combined with methotrexate, dexamethasone or Humira: donors 1 and 2; for IP-10 production in response to polyAU, antibody combined with methotrexate, dexamethasone or Humira: 300 μg/ml IPH3102, donor 2; for IP-10 production in response to polyIC / IP-10 production in response to polyAU: antibody 50 μg/ml; for IP-10 production in response to polyIC: 24 h, human donors 1 and 2; for IP-10 production in response to polyAU: 300 μg/ml IPH3102, 24 h, human donor 2
Description: IP-10 production was assessed in human donors in response to polyAU (IPH3102), believed to be a specific agonist of TLR3, or plC, believed to be an agonist of TLR3 as well as other dsRNA receptors such as RIG-I and MDA-5. Fresh PBMC were isolated from whole blood of two independent donors. 1.5×10^6 (donor #1) and 3×10^6 (donor #2) PBMC per ml were incubated in flat-bottom 96W plates in the presence of 50 μg/ml 31C3 or 34A3 anti-human TLR3 mAbs and a dose range of methotrexate (300, 30 and 3 μg/ml), dexamethasone (200, 20, 2 μg/ml) or Humira® (100, 10, 1 μg/ml). Cells were incubated 1 hr at 37° C. prior addition of 300 μg/ml IPH3102 or 30 μg/ml poly(I:C). Cells were incubated for 24 additional hours at 37° C. Supernatant were then harvested to quantify IP10 production by ELISA. Cells were then recovered, stained with 7-AAD and analyzed by flow cytometry (FACS) to evaluate potential toxic effects of any drugs.

BEAS-2B cell line = assay: IL-6 and IP-10 production by BEAS-2B cells in response to polyAU (ELISA); type: cell-based, human; details: 300 μg/ml IPH3102, 24 h
Description: IL-6 and IP-10 production was assessed in PBMC and virus-transformed lung epithelial BEAS-2B cell line in response to high molecular weight polyAU (IPH3102), a specific agonist of TLR3. Experiments with BEAS-2B were performed in Bronchial Epithelial Growth Medium (Lonza, #CC-3170). 2×10^4 BEAS-2B per well were plated in flat-bottom 96W plates in 100 μl culture medium and incubated over night at 37° C. A part of the cells was treated for 24-supplemental hours with 1000 UI/ml Intron A (Schering Plough, IFN-alpha 2b). Medium was discarded and 37B7 anti-human TLR3 Ab (0.01 and 0.1 μg/ml in the condition without Intron A and 0.01 and 0.3 μg/ml after treatment with Intron A) was added to the culture. Cells were incubated 30 min at 37° C. prior addition of Dexamethasone (1, 0.1, 0.01, 0.001 μg/ml in the condition […] and 10, 1, 0.1, 0.01 μg/ml after treatment with Intron A) or Budesonide (1, 0.1, 0.01, 0.001 μg/ml). Cells were incubated 30-additional min at 37° C. before addition of 300 μg/ml IPH3102. Cells were finally incubated for 24-additional hours and supernatants were harvested to quantify IL-6 and IP-10 production by ELISA.

Molecule	IP-10 production in response to polyIC, antibody combined with methotrexate, dexamethasone or Humira (PBMC)	IP-10 production in response to polyAU, antibody combined with methotrexate, dexamethasone or Humira (PBMC)	IP-10 production in response to polyIC (PBMC)	IP-10 production in response to polyAU (PBMC)	IL-6 production by BEAS-2B, anti-TLR3 Ab combined with dexamethasone or budesonide (BEAS-2B cell line; highest anti-TLR3 Ab dose)	block of BEAS-2B IL-6 production (BEAS-2B cell line; highest concentration of anti-TLR3 Ab) [%]
B1	reduce IP-10 further	reduce IP-10 further	substantially reduce IP-10 production	substantially reduce IP-10 production		
B2	reduce IP-10 further	reduce IP-10 further	substantially reduce IP-10 production	substantially reduce IP-10 production		
B3					strong additive inhibition	~50
